# PMC11101452, “Structures of the mumps virus polymerase complex via cryo-electron microscopy” (Nature Communications, 2024)
# B1: mumps virus (strain Jeryl-Lynn) phosphoprotein (P) (natural protein)
# chain: MDQFIKQDETGDLIETGMNVANHFLSTPIQGTNSLSKASILPGVAPVLIGNPEQKNIQHPTASHQGSKTKGRGSGVRSIIVSPSEAGNGGTQIPEPLFAQTGQGGIVTTVYQDPTIQPTGSYRSVELAKIGKERMINRFVEKPRTSTPVTEFKRGGPGAAAQGQTIQEEGIDGNGASAGSKERSGSLSGATLYAHLSLPQQDSTPANVGIAPQSAISANEIMDLLRGMDARLQHLEQKVDKVLAQGSMVTQIKNELSTVKTTLATIEGMMATVKIMDPGNPTGVPVDELRRSFSDHVTIVSGPGDVSFSSSEKPTLYLDELARPVSKPRPAKQTKSQPVKDLAGQKVMITKMITDCVANPQMKQAFEQRLAKASTEDALNDIKRDIIRSAI
# notes: Phosphoprotein (P) of mumps virus strain Jeryl-Lynn, GenBank AAF70389.1; domains NTD, OD, Linker2, CTD (with XD); Four P molecules (P1-P4) stand in the L–P complex; only POD, Linker2 and part of PCTD are resolved; also called MuV P; P1; not shown: Flag, C-terminal, kept
# Target: the molecule itself
# Assay: cryo-EM structure; L–P complex co-expressed in Sf9 and co-purified by the Strep tag of L; 2.0 μM; annealed and unannealed samples combined; 150 mM NaCl, 20 mM Tris-HCl, 6 mM MgCl2, 1 mM TCEP, pH 8.0; two conformations (L_(integral)–P, L_(body)–P)
protein,measurement,value
B1,stoichiometry N,4
